Consider three molecules from patent US20050090643A1.

The test concerns the target viral envelope glycoprotein gp120 of human immunodeficiency virus (HIV-1) (HIV-1). In words: cell-based or functional assay.

B1: dimeric wild-type CVN (protein)
chain: LGKFSQTCYNSAIQGSVLTSTCERTNGGYNTSSIDLNSVIENVDGSLKWQPSNFIETCRNTQLAGSSELAAECKTRAQQFVSTKINLDDHIANIDGTLKYE
B1: the IC50 in quantitative vaccinia virus-based HIV-1 fusion assay stood at 9 nM and the average KD from non-linear least squares best fitting of HIV-1 fusion assay titration data to a two-independent site model stood at 21 nM.

B2: monomeric wild-type CVN (protein)
chain: B1 chain
B2: the IC50 in quantitative vaccinia virus-based HIV-1 fusion assay turned out to be 32 nM and the average KD from non-linear least squares best fitting of HIV-1 fusion assay titration data to a two-independent site model was 67 nM.

B3: CVN Gln50 deletion mutant (ΔQ50-CVN), obligate domain-swapped dimer of cyanovirin (protein)
chain: LGKFSQTCYNSAIQGSVLTSTCERTNGGYNTSSIDLNSVIENVDGSLKWPSNFIETCRNTQLAGSSELAAECKTRAQQFVSTKINLDDHIANIDGTLKYE
B3 yielded an IC50 in quantitative vaccinia virus-based HIV-1 fusion assay of 9 nM and an average KD from non-linear least squares best fitting of HIV-1 fusion assay titration data to a two-independent site model of 22 nM.
